Measurements: US20170355769A1 (AbbVie / Abbott, published 2017)
Residue numbers refer to the chain shown, from its start.

B1: huAb3v2.5-TX (antibody, human IgG1, kappa, L234A L235A, V domains shown)
VH: EVQLVQSGAEVKKPGSSVKVSCKASGYTFSSYWMHWVRQAPGQGLEWIGLIHPESGSTNYNEMFKNRATLTVDRSTSTAYMELSSLRSEDTAVYYCAGGGRLYFDYWGQGTTVTVSS
VL: DIVMTQSPLSLPVTPGEPASISCRSSQSLVHSNRDTYLRWYLQKPGQSPQLLIYKVSNRFSGVPDRFSGSGSGTDFTLKISRVEAEDVGVYYCSQSTHVPYTFGGGTKVEIKR
modifications: synthon TX on reduced interchain Cys
B2: huAb3v2.6-TV (antibody, human IgG1, kappa, L234A L235A, V domains shown)
VH: B1 VH
VL: B1 VL with R34Q
modifications: synthon TV on reduced interchain Cys
B3: huAb3v2.6-ZZ (antibody, human IgG1, kappa, L234A L235A, V domains shown)
VH: B1 VH
VL: B1 VL with R34Q
modifications: synthon ZZ on reduced interchain Cys
B4: huAb3v2.6-XW (antibody, human IgG1, kappa, L234A L235A, V domains shown)
VH: B1 VH
VL: B1 VL with R34Q
modifications: synthon XW on reduced interchain Cys
B5: huAb3v2.6-AAA (antibody, human IgG1, kappa, L234A L235A, V domains shown)
VH: B1 VH
VL: B1 VL with R34Q
modifications: synthon AAA on reduced interchain Cys
B6: huAb3v2.6-YY (antibody, human IgG1, kappa, L234A L235A, V domains shown)
VH: B1 VH
VL: B1 VL with R34Q
modifications: synthon YY on reduced interchain Cys
B7: huAb3v2.6-AAD (antibody, human IgG1, kappa, L234A L235A, V domains shown)
VH: B1 VH
VL: B1 VL with R34Q
modifications: synthon AAD on reduced interchain Cys
B8: huAb3v2.5-SE (antibody, human IgG1, kappa, L234A L235A, V domains shown)
VH: B1 VH
VL: B1 VL
modifications: synthon SE on reduced interchain Cys
B9: huAb3v2.5-ZZ (antibody, human IgG1, kappa, L234A L235A, V domains shown)
VH: B1 VH
VL: B1 VL
modifications: synthon ZZ on reduced interchain Cys
B10: huAb3v2.5-YG (antibody, human IgG1, kappa, L234A L235A, V domains shown)
VH: B1 VH
VL: B1 VL
modifications: synthon YG on reduced interchain Cys
B11: huAb3v2.6-SE (antibody, human IgG1, kappa, L234A L235A, V domains shown)
VH: B1 VH
VL: B1 VL with R34Q
modifications: synthon SE on reduced interchain Cys
B12: huAb3v2.5-AAA (antibody, human IgG1, kappa, L234A L235A, V domains shown)
VH: B1 VH
VL: B1 VL
modifications: synthon AAA on reduced interchain Cys
B13: huAb3v2.6-ZT (antibody, human IgG1, kappa, L234A L235A, V domains shown)
VH: B1 VH
VL: B1 VL with R34Q
modifications: synthon ZT on reduced interchain Cys
B14: huAb3v2.6-WD (antibody, human IgG1, kappa, L234A L235A, V domains shown)
VH: B1 VH
VL: B1 VL with R34Q
modifications: synthon WD on reduced interchain Cys
B15: huAb3v2.5-AAD (antibody, human IgG1, kappa, L234A L235A, V domains shown)
VH: B1 VH
VL: B1 VL
modifications: synthon AAD on reduced interchain Cys
B16: huAb3v2.6-LB (antibody, human IgG1, kappa, L234A L235A, V domains shown)
VH: B1 VH
VL: B1 VL with R34Q
modifications: synthon LB on reduced interchain Cys
B17: huAb3v2.5-YY (antibody, human IgG1, kappa, L234A L235A, V domains shown)
VH: B1 VH
VL: B1 VL
modifications: synthon YY on reduced interchain Cys
B18: huAb3v2.5-KZ (antibody, human IgG1, kappa, L234A L235A, V domains shown)
VH: B1 VH
VL: B1 VL
modifications: synthon KZ on reduced interchain Cys
B19: huAb3v2.5-XW (antibody, human IgG1, kappa, L234A L235A, V domains shown)
VH: B1 VH
VL: B1 VL
modifications: synthon XW on reduced interchain Cys
B20: huAb3v2.5-LB (antibody, human IgG1, kappa, L234A L235A, V domains shown)
VH: B1 VH
VL: B1 VL
modifications: synthon LB on reduced interchain Cys
B21: huAb3v2.6-SR (antibody, human IgG1, kappa, L234A L235A, V domains shown)
VH: B1 VH
VL: B1 VL with R34Q
modifications: synthon SR on reduced interchain Cys
B22: huAb3v2.6-TX (antibody, human IgG1, kappa, L234A L235A, V domains shown)
VH: B1 VH
VL: B1 VL with R34Q
modifications: synthon TX on reduced interchain Cys
B23: huAb3v2.5-SR (antibody, human IgG1, kappa, L234A L235A, V domains shown)
VH: B1 VH
VL: B1 VL
modifications: synthon SR on reduced interchain Cys
B24: huAb3v2.5-TV (antibody, human IgG1, kappa, L234A L235A, V domains shown)
VH: B1 VH
VL: B1 VL
modifications: synthon TV on reduced interchain Cys
B25: huAb3v2.5-WD (antibody, human IgG1, kappa, L234A L235A, V domains shown)
VH: B1 VH
VL: B1 VL
modifications: synthon WD on reduced interchain Cys
B26: huAb3v2.5-ZT (antibody, human IgG1, kappa, L234A L235A, V domains shown)
VH: B1 VH
VL: B1 VL
modifications: synthon ZT on reduced interchain Cys
B27: huAb13v1-XW (antibody, human IgG1, kappa, L234A L235A, V domains shown)
VH: EVQLQESGPGLVKPSETLSLTCAVTGYSITSGYSWHWIRQFPGNGLEWMGYIHSSGSTNYNPSLKSRISISRDTSKNQFFLKLSSVTAADTAVYYCAGYDDYFEYWGQGTTVTVSS
VL: DIQMTQSPSSLSASVGDRVTITCKASQNVGFNVAWYQQKPGKSPKALIYSASYRYSGVPSRFSGSGSGTDFTLTISSLQPEDFAEYFCQQYNWYPFTFGQGTKLEIKR
modifications: synthon XW on reduced interchain Cys
B28: huAb13v1-YG (antibody, human IgG1, kappa, L234A L235A, V domains shown)
VH: B27 VH
VL: B27 VL
modifications: synthon YG on reduced interchain Cys
B29: huAb13v1-KZ (antibody, human IgG1, kappa, L234A L235A, V domains shown)
VH: B27 VH
VL: B27 VL
modifications: synthon KZ on reduced interchain Cys
B30: huAb13v1-SE (antibody, human IgG1, kappa, L234A L235A, V domains shown)
VH: B27 VH
VL: B27 VL
modifications: synthon SE on reduced interchain Cys
B31: huAb13v1-TX (antibody, human IgG1, kappa, L234A L235A, V domains shown)
VH: B27 VH
VL: B27 VL
modifications: synthon TX on reduced interchain Cys
B32: huAb13v1-AAA (antibody, human IgG1, kappa, L234A L235A, V domains shown)
VH: B27 VH
VL: B27 VL
modifications: synthon AAA on reduced interchain Cys
B33: huAb13v1-TV (antibody, human IgG1, kappa, L234A L235A, V domains shown)
VH: B27 VH
VL: B27 VL
modifications: synthon TV on reduced interchain Cys
B34: huAb13v1-SR (antibody, human IgG1, kappa, L234A L235A, V domains shown)
VH: B27 VH
VL: B27 VL
modifications: synthon SR on reduced interchain Cys

Molecular target: T1, Human full length B7-H3 (human, UniProt Q5ZPR3 29-534)
T1 sequence: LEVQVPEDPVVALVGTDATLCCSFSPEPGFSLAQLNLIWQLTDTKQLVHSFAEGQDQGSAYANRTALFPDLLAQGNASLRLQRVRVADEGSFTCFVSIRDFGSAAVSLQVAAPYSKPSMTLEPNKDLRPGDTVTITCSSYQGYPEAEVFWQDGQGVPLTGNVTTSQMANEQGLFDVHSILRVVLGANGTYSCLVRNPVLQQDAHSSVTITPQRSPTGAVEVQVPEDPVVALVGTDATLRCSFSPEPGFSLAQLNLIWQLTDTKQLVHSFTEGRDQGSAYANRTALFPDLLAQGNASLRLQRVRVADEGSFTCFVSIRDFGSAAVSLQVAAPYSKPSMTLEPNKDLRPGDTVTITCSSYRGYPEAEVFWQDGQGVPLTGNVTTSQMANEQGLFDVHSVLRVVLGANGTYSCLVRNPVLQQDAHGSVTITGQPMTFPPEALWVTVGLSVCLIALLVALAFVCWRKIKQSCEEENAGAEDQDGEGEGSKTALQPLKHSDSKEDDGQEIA
Assay: cell-based or functional assay

**Q.** With B1 as the binder, how does the “EC50 nM H1650 (tumor cell cytotoxicity)” value read?
**A.** Its value is 0.62 nM.

**Q.** Which “EC50 nM H1650 (tumor cell cytotoxicity)” value does the source give for B2 here?
**A.** Its value is 0.52 nM.

**Q.** B3 was tested. Which “EC50 nM H1650 (tumor cell cytotoxicity)” value did it give?
**A.** Its value is 1.35 nM.

**Q.** With B4 as the binder, how does the “EC50 nM H1650 (tumor cell cytotoxicity)” value read?
**A.** Its value is 2.4 nM.

**Q.** Which “EC50 nM H1650 (tumor cell cytotoxicity)” value does the source give for B5 here?
**A.** Its value is 1.24 nM.

**Q.** With B6 as the binder, how does the “EC50 nM H1650 (tumor cell cytotoxicity)” value read?
**A.** The value was 0.72 nM.

**Q.** With B7 as the binder, how does the “EC50 nM H1650 (tumor cell cytotoxicity)” value read?
**A.** Its value is 0.85 nM.

**Q.** Which “EC50 nM H1650 (tumor cell cytotoxicity)” value does the source give for B8 here?
**A.** Its value is 0.85 nM.

**Q.** B9 was tested. Which “EC50 nM H1650 (tumor cell cytotoxicity)” value did it give?
**A.** Its value is 1.1 nM.

**Q.** For B10, which “EC50 nM H1650 (tumor cell cytotoxicity)” value is on record?
**A.** The value was 0.71 nM.

**Q.** Which “EC50 nM H1650 (tumor cell cytotoxicity)” value does the source give for B11 here?
**A.** The value was 1.01 nM.

**Q.** With B12 as the binder, how does the “EC50 nM H1650 (tumor cell cytotoxicity)” value read?
**A.** The value was 0.85 nM.

**Q.** With B13 as the binder, how does the “EC50 nM H1650 (tumor cell cytotoxicity)” value read?
**A.** Its value is 1.11 nM.

**Q.** Which “EC50 nM H1650 (tumor cell cytotoxicity)” value does the source give for B14 here?
**A.** Its value is 0.79 nM.

**Q.** With B15 as the binder, how does the “EC50 nM H1650 (tumor cell cytotoxicity)” value read?
**A.** The value was 0.49 nM.

**Q.** B16 was tested. Which “EC50 nM H1650 (tumor cell cytotoxicity)” value did it give?
**A.** Its value is 2.07 nM.

**Q.** B17 was tested. Which “EC50 nM H1650 (tumor cell cytotoxicity)” value did it give?
**A.** The value was 0.71 nM.

**Q.** How did the “EC50 nM H1650 (tumor cell cytotoxicity)” value turn out when B18 was run?
**A.** Its value is 0.87 nM.

**Q.** Which “EC50 nM H1650 (tumor cell cytotoxicity)” value does the source give for B19 here?
**A.** Its value is 2.18 nM.

**Q.** Which “EC50 nM H1650 (tumor cell cytotoxicity)” value does the source give for B20 here?
**A.** Its value is 2.59 nM.

**Q.** With B21 as the binder, how does the “EC50 nM H1650 (tumor cell cytotoxicity)” value read?
**A.** The value was 0.71 nM.

**Q.** How did the “EC50 nM H1650 (tumor cell cytotoxicity)” value turn out when B22 was run?
**A.** Its value is 0.47 nM.

**Q.** For B23, which “EC50 nM H1650 (tumor cell cytotoxicity)” value is on record?
**A.** Its value is 0.59 nM.

**Q.** Which “EC50 nM H1650 (tumor cell cytotoxicity)” value does the source give for B24 here?
**A.** The value was 0.53 nM.

**Q.** For B25, which “EC50 nM H1650 (tumor cell cytotoxicity)” value is on record?
**A.** The value was 0.83 nM.

**Q.** With B26 as the binder, how does the “EC50 nM H1650 (tumor cell cytotoxicity)” value read?
**A.** Its value is 0.95 nM.

**Q.** B27 was tested. Which “EC50 nM H1650 (tumor cell cytotoxicity)” value did it give?
**A.** The value was 0.86 nM.

**Q.** For B28, which “EC50 nM H1650 (tumor cell cytotoxicity)” value is on record?
**A.** Its value is 0.33 nM.

**Q.** B29 was tested. Which “EC50 nM H1650 (tumor cell cytotoxicity)” value did it give?
**A.** The value was 179 nM.

**Q.** B30 was tested. Which “EC50 nM H1650 (tumor cell cytotoxicity)” value did it give?
**A.** Its value is 0.63 nM.

**Q.** For B31, which “EC50 nM H1650 (tumor cell cytotoxicity)” value is on record?
**A.** Its value is 0.22 nM.

**Q.** B32 was tested. Which “EC50 nM H1650 (tumor cell cytotoxicity)” value did it give?
**A.** The value was 0.37 nM.

**Q.** Which “EC50 nM H1650 (tumor cell cytotoxicity)” value does the source give for B33 here?
**A.** Its value is 0.43 nM.

**Q.** For B34, which “EC50 nM H1650 (tumor cell cytotoxicity)” value is on record?
**A.** The value was 0.59 nM.
